In publication PMC7784771:

Tests used:
TDP-43 RRM1-RRM2 = TDP-43 RRM1-RRM2 (human, UniProt Q13148 101-265); assay: fluorescence polarization
TDP-43 RRM1 = TDP-43 RRM1 (human, UniProt Q13148 101-191); assay: fluorescence polarization
TDP-43 RRM1, sequence (Q13148 101-191): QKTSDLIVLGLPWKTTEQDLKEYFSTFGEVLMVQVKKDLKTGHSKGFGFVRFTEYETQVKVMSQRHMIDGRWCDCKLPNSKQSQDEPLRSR

TDP-43 RRM1-RRM2, sequence (Q13148 101-265): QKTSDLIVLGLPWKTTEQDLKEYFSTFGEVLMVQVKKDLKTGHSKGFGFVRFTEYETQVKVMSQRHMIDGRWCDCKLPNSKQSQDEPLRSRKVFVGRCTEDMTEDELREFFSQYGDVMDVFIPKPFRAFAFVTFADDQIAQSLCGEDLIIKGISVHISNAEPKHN

UGUGUGUGUGUG (ssRNA) [(UG)6 RNA]
Kd (TDP-43 RRM1-RRM2): 9.5 ± 1.3 nM | Kd (TDP-43 RRM1): 56.9 ± 2.1 nM
